Reference: PMC4865239

Key:
[1] = biological target: AfaE-III adhesin of uropathogenic E. coli strain A30 (E. coli AfaE-III) (E. coli (uropathogenic strain A30))
[2] = biological target: CEACAM-binding Opa protein (OpaCEA) from N. gonorrhoeae, expressed in E. coli (E. coli OpaCEA) (Neisseria gonorrhoeae)

“GFP-tagged amino-terminal IgV-like domain of human CEA (CEA-N) (domain or fragment)” showed a bacteria recovered from the urogenital tract 24 h after vaginal infection, CEAtg mice (human CEA on mucosal surfaces) against wildtype mice [1] greater than 80 fold and a bacteria recovered from the urogenital tract 24 h after vaginal infection, CEAtg mice (human CEA on mucosal surfaces) against wildtype mice [2] greater than 30 fold.
